Laboratory results published in patent US20250313605A1.

Biological target: human GIP receptor (human) (UniProt P48546)
Assay: cell-based or functional assay

Sequence of human GIP receptor (human) (P48546 22-466): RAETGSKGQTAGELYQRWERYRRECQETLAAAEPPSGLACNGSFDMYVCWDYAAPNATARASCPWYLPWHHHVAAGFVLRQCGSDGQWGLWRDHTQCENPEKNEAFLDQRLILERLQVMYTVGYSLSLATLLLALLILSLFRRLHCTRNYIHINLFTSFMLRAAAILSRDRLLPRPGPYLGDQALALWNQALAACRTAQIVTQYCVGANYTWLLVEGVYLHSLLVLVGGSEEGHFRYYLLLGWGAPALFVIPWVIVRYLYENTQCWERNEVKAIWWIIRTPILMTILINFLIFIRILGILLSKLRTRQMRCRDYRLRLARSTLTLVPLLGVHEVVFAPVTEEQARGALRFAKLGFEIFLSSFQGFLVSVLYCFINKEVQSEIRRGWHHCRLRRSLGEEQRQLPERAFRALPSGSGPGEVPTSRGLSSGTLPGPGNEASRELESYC

cAMP EC50 (0.1% casein): 0.154 nM
cAMP EC50 (FBS and BSA present): 0.133 nM
Substance: human GIP (1-42)NH2 (from UniProt P09681 52-93) (ligand)
